Assay results reported in patent publication US10967068B2, “Stability-modulating linkers for use with antibody drug conjugates” (priority 2014, dated 2021).
*1 amine or outer side, *2 acyl side, *3 side chain or, on linkers, in order; H or OH if unused. Where a SMILES comes first, the peptide text is derived from it. [ ]: non-standard residue; d: D form. The star is where a group is joined. Dolaproine = CO[C@@H]([C@@H]1CCCN1)[C@@H](C)C(=O)O; Acetyl(2-(4-imidazolyl)) = O=C(Cc1c[nH]cn1)*; Dil = CC[C@H](C)[C@H](NC)[C@@H](CC(=O)O)OC; PABC = O=C(OCc1ccc(N[*:1])cc1)[*:2]; Doe = c1ccc(C[C@H](N*)c2nccs2)cc1; Cit = NC(=O)NCCC[C@H](N)C(=O)O; Isobutyryl = CC(C)C(=O)*; Me2Gly = CN(C)CC(=O)*; Aib = CC(C)(N)C(=O)O; CO = O=C([*:1])[*:2]; X2 = CC1(C(=O)*)COC1; Glycolyl = O=C(CO)*; Sar = CNCC(=O)O

Assay: In Vitro Stability Assay—Mouse Plasma
Type: in vitro ADME
Details: for Conjugate stability (%): % DAR remaining after plasma 3 or 4.5 days; for DAR: before plasma incubation
Method: 100-200 ug of ADC were incubated in mouse plasma (provided by Bioreclamation) supplemented with 1×PBS to the final ADC concentration of 0.125 mg/mL. Following incubation for 3-7 days, samples were diluted with an equal volume of 1×PBS, and ADCs were isolated using Trop2 antigen coupled to CNBr-activated Sepharose (GE Healthcare) using standard protocols. Drug-antibody ratios were assessed before and after in vitro exposure using HIC methods and mass spectrometry.
DAR values for conjugates purified after plasma incubation were compared to DAR values prior to plasma treatment.

Row | Compound | DAR after plasma incubation for 3 to 4.5 days (attachment position H16) | Conjugate stability (%) (attachment position H16) | DAR (attachment position H16) | DAR after plasma incubation for 3 to 4.5 days (attachment position L11B) | Conjugate stability (%) (attachment position L11B) | DAR (attachment position L11B)
1 | CC[C@H](C)[C@@H]([C@@H](CC(=O)N1CCC[C@H]1[C@H](OC)[C@@H](C)C(=O)N[C@@H](Cc1ccccc1)c1nccs1)OC)N(C)C(=O)[C@@H](NC(=O)C(C)(C)NC(=O)OCc1ccc(NC(=O)[C@H](CCCNC(N)=O)NC(=O)[C@@H](NC(=O)[C@H](CCCCN)NC(=O)Cc2cnc[nH]2)C(C)C)cc1)C(C)C [Example 5, N˜2˜-(1H-Imidazol-5-ylacetyl)-L-lysyl-L-valyl-N-{4-[(8S,11S,12R)-11-[(2S)-butan-2-yl]-12-(2-{(2S)-2-[(1R,2R)-1-methoxy-2-methyl-3-oxo-3-{[(1S)-2-phenyl-1-(1,3-thiazol-2-yl)ethyl]amino}propyl]pyrrolidin-1-yl}-2-oxoethyl)-5,5,10-trimethyl-3,6,9-trioxo-8-(propan-2-yl)-2,13-dioxa-4,7,10-triazatetradec-1-yl]phenyl}-N˜5˜-carbamoyl-L-ornithinamide] ({Acetyl(2-(4-imidazolyl))}-KV[Cit][PABC][Aib]V[Dil][Dolaproine]-Doe) | 2.0 | 100 | 1.96 | – | – | –
2 | CC[C@H](C)[C@@H]([C@@H](CC(=O)N1CCC[C@H]1[C@H](OC)[C@@H](C)C(=O)N[C@@H](Cc1ccccc1)c1nccs1)OC)N(C)C(=O)[C@@H](NC(=O)C(C)(C)NC(=O)OCc1ccc(NC(=O)[C@H](CCCNC(N)=O)NC(=O)[C@@H](NC(=O)[C@H](CCCCN)NC(=O)C(C)C)C(C)C)cc1)C(C)C [Example 7, N˜2˜-(2-Methylpropanoyl)-L-lysyl-L-valyl-N-{4-[(8S,11S,12R)-11-[(2S)-butan-2-yl]-12-(2-{(2S)-2-[(1R,2R)-1-methoxy-2-methyl-3-oxo-3-{[(1S)-2-phenyl-1-(1,3-thiazol-2-yl)ethyl]amino}propyl]pyrrolidin-1-yl}-2-oxoethyl)-5,5,10-trimethyl-3,6,9-trioxo-8-(propan-2-yl)-2,13-dioxa-4,7,10-triazatetradec-1-yl]phenyl}-N˜5˜-carbamoyl-L-ornithinamide] (Isobutyryl-KV[Cit][PABC][Aib]V[Dil][Dolaproine]-Doe) | – | – | – | 0 | 0 | 1.51
3 | CC[C@H](C)[C@@H]([C@@H](CC(=O)N1CCC[C@H]1[C@H](OC)[C@@H](C)C(=O)N[C@@H](Cc1ccccc1)c1nccs1)OC)N(C)C(=O)[C@@H](NC(=O)C(C)(C)NC(=O)OCc1ccc(NC(=O)[C@H](CCCNC(N)=O)NC(=O)[C@@H](NC(=O)[C@H](CCCCN)NC(=O)CO)C(C)C)cc1)C(C)C [Example 25, N˜2˜-(hydroxyacetyl)-L-lysylvalyl-N-{4-[(8S,11S,12R)-11-[(2S)-butan-2-yl]-12-(2-{(2S)-2-[(1R,2R)-1-methoxy-2-methyl-3-oxo-3-{[(1S)-2-phenyl-1-(1,3-thiazol-2-yl)ethyl]amino}propyl]pyrrolidin-1-yl}-2-oxoethyl)-5,5,10-trimethyl-3,6,9-trioxo-8-(propan-2-yl)-2,13-dioxa-4,7,10-triazatetradec-1-yl]phenyl}-N˜5˜-carbamoyl-L-ornithinamide] (Glycolyl-KV[Cit][PABC][Aib]V[Dil][Dolaproine]-Doe) | – | – | – | – | 84 | 1.91
4 | CC[C@H](C)[C@@H]([C@@H](CC(=O)N1CCC[C@H]1[C@H](OC)[C@@H](C)C(=O)N[C@@H](Cc1ccccc1)c1nccs1)OC)N(C)C(=O)[C@@H](NC(=O)C(C)(C)NC(=O)OCc1ccc(NC(=O)[C@H](CCCNC(N)=O)NC(=O)[C@@H](NC(=O)[C@H](CCCCN)NC(=O)NC)C(C)C)cc1)C(C)C [Example 26, N˜2˜-(methylcarbamoyl)-L-lysylvalyl-N-{4-[(8S,11S,12R)-11-[(2S)-butan-2-yl]-12-(2-{(2S)-2-[(1R,2R)-1-methoxy-2-methyl-3-oxo-3-{[(1S)-2-phenyl-1-(1,3-thiazol-2-yl)ethyl]amino}propyl]pyrrolidin-1-yl}-2-oxoethyl)-5,5,10-trimethyl-3,6,9-trioxo-8-(propan-2-yl)-2,13-dioxa-4,7,10-triazatetradec-1-yl]phenyl}-N˜5˜-carbamoyl-L-ornithinamide] ({NHMe-CO}-KV[Cit][PABC][Aib]V[Dil][Dolaproine]-Doe) | – | – | – | 1.16 | 60 | 1.92
5 | CC[C@H](C)[C@@H]([C@@H](CC(=O)N1CCC[C@H]1[C@H](OC)[C@@H](C)C(=O)N[C@@H](Cc1ccccc1)c1nccs1)OC)N(C)C(=O)[C@@H](NC(=O)C(C)(C)NC(=O)OCc1ccc(NC(=O)[C@H](CCCNC(N)=O)NC(=O)[C@@H](NC(=O)[C@H](CCCCN)NC(=O)CNC)C(C)C)cc1)C(C)C [Example 27, N-methylglycyl-L-lysylvalyl-N-{4-[(8S,11S,12R)-11-[(2S)-butan-2-yl]-12-(2-{(2S)-2-[(1R,2R)-1-methoxy-2-methyl-3-oxo-3-{[(1S)-2-phenyl-1-(1,3-thiazol-2-yl)ethyl]amino}propyl]pyrrolidin-1-yl}-2-oxoethyl)-5,5,10-trimethyl-3,6,9-trioxo-8-(propan-2-yl)-2,13-dioxa-4,7,10-triazatetradec-1-yl]phenyl}-N˜5˜-carbamoyl-L-ornithinamide] (H-[Sar]KV[Cit][PABC][Aib]V[Dil][Dolaproine]-Doe) | – | – | – | 0.98 | 57 | 1.72
6 | CC[C@H](C)[C@@H]([C@@H](CC(=O)N1CCC[C@H]1[C@H](OC)[C@@H](C)C(=O)N[C@@H](Cc1ccccc1)c1nccs1)OC)N(C)C(=O)[C@@H](NC(=O)C(C)(C)NC(=O)OCc1ccc(NC(=O)[C@H](CCCNC(N)=O)NC(=O)[C@@H](NC(=O)[C@H](CCCCN)NC(=O)CN(C)C)C(C)C)cc1)C(C)C [Example 28, N,N-dimethylglycyl-L-lysylvalyl-N-{4-[(8S,11S,12R)-11-[(2S)-butan-2-yl]-12-(2-{(2S)-2-[(1R,2R)-1-methoxy-2-methyl-3-oxo-3-{[(1S)-2-phenyl-1-(1,3-thiazol-2-yl)ethyl]amino}propyl]pyrrolidin-1-yl}-2-oxoethyl)-5,5,10-trimethyl-3,6,9-trioxo-8-(propan-2-yl)-2,13-dioxa-4,7,10-triazatetradec-1-yl]phenyl}-N˜5˜-carbamoyl-L-ornithinamide] (Me2Gly-KV[Cit][PABC][Aib]V[Dil][Dolaproine]-Doe) | – | – | – | 0.07 | 4 | 1.83
7 | CC[C@H](C)[C@@H]([C@@H](CC(=O)N1CCC[C@H]1[C@H](OC)[C@@H](C)C(=O)N[C@@H](Cc1ccccc1)c1nccs1)OC)N(C)C(=O)[C@@H](NC(=O)C(C)(C)NC(=O)OCc1ccc(NC(=O)[C@H](CCCNC(N)=O)NC(=O)[C@@H](NC(=O)[C@H](CCCCN)NC(=O)CN)C(C)C)cc1)C(C)C [Example 29, glycyl-L-lysylvalyl-N-{4-[(8S,11S,12R)-11-[(2S)-butan-2-yl]-12-(2-{(2S)-2-[(1R,2R)-1-methoxy-2-methyl-3-oxo-3-{[(1S)-2-phenyl-1-(1,3-thiazol-2-yl)ethyl]amino}propyl]pyrrolidin-1-yl}-2-oxoethyl)-5,5,10-trimethyl-3,6,9-trioxo-8-(propan-2-yl)-2,13-dioxa-4,7,10-triazatetradec-1-yl]phenyl}-N˜5˜-carbamoyl-L-ornithinamide] (H-GKV[Cit][PABC][Aib]V[Dil][Dolaproine]-Doe) | – | – | – | 1.46 | 81 | 1.80
8 | CC[C@H](C)[C@@H]([C@@H](CC(=O)N1CCC[C@H]1[C@H](OC)[C@@H](C)C(=O)N[C@@H](Cc1ccccc1)c1nccs1)OC)N(C)C(=O)[C@@H](NC(=O)C(C)(C)NC(=O)OCc1ccc(NC(=O)[C@H](CCCNC(N)=O)NC(=O)[C@@H](NC(=O)[C@H](CCCCN)NC(=O)C2(C)COC2)C(C)C)cc1)C(C)C [Example 30, N˜2˜-[(3-methyloxetan-3-yl)carbonyl]-L-lysyl-L-valyl-N-{4-[(8S,11S,12R)-11-[(2S)-butan-2-yl]-12-(2-{(2S)-2-[(1R,2R)-1-methoxy-2-methyl-3-oxo-3-{[(1S)-2-phenyl-1-(1,3-thiazol-2-yl)ethyl]amino}propyl]pyrrolidin-1-yl}-2-oxoethyl)-5,5,10-trimethyl-3,6,9-trioxo-8-(propan-2-yl)-2,13-dioxa-4,7,10-triazatetradec-1-yl]phenyl}-N˜5˜-carbamoyl-L-ornithinamide] (X2-KV[Cit][PABC][Aib]V[Dil][Dolaproine]-Doe) | – | – | – | 0.06 | 5 | 1.27
9 | CC[C@H](C)[C@@H]([C@@H](CC(=O)N1CCC[C@H]1[C@H](OC)[C@@H](C)C(=O)N[C@@H](Cc1ccccc1)c1nccs1)OC)N(C)C(=O)[C@@H](NC(=O)C(C)(C)NC(=O)OCc1ccc(NC(=O)[C@H](CCCNC(N)=O)NC(=O)[C@@H](NC(=O)[C@H](CCCCN)NC(=O)C(C)(C)N)C(C)C)cc1)C(C)C [Example 31, 2-methylalanyl-L-lysylvalyl-N-{4-[(8S,11S,12R)-11-[(2S)-butan-2-yl]-12-(2-{(2S)-2-[(1R,2R)-1-methoxy-2-methyl-3-oxo-3-{[(1S)-2-phenyl-1-(1,3-thiazol-2-yl)ethyl]amino}propyl]pyrrolidin-1-yl}-2-oxoethyl)-5,5,10-trimethyl-3,6,9-trioxo-8-(propan-2-yl)-2,13-dioxa-4,7,10-triazatetradec-1-yl]phenyl}-N˜5˜-carbamoyl-L-ornithinamide] (H-[Aib]KV[Cit][PABC][Aib]V[Dil][Dolaproine]-Doe) | – | – | – | 0.03 | 2 | 1.77
